{"source": "paper PMC10174534", "target": "SARS-CoV-2 ΔN135 spike (S) protein, soluble prefusion-stabilised ectodomain trimer (SARS-CoV-2) (UniProt P0DTC2)", "assay": "SEC-MALS", "data": [{"substance": "SARS-CoV-2 ΔN135 spike (S) protein, soluble prefusion-stabilised ectodomain trimer (from UniProt P0DTC2 22-1208) (natural protein)", "values": [{"measurement": "stoichiometry N", "result": 3}]}]}
